B1: V033 (antibody, V domains shown)
VH: QVQLVQSGAEVKKPGASVKVSCKASGYTFTSYGISWVRQAPGQGLEWMGWISAYNGNTNYAQKLQGRVTMTTDTSTSTAYMELRSLRSDDTAVYYCARGRFCSSTSCYRAAPNYYYYYMDVWGKGTTVTVSS
VL: NFMLTQPHSVSESPGKTVTISCTRSSGSIASNYVQWYQQRPGSAPTTVIYEDNQRPSGVPDRFSGSIDSSSNSASLTISGLKTEDEADYYCQSYDSSNPYWVFGGGTKLTVL
notes: IgG; donor BRA14; source: recombinant monoclonal IgG, produced and purified as previously described
B2: V039 (antibody, V domains shown)
VH: QVQLQESGPGLVKPSQTLSLTCTVSGGSISSGSYYWSWIRQPAGKGLEWIGRIYTSGSTNYNPSLKSRVTISVDTSKNQFSLKLSSVTAADTAVYYCARADYSDYDNYYFDYWGQGTLVTVSS
VL: NFMLTQPHSVSESPGKTVAISCTRSSGSIASNYVHWYQQRPGSSPTTVIYDDNQRPSGVPDRFSGSIDSSSNSASLTISGLKTEDEADYYCQSYDSSNHNWVFGGGTKLTVL
notes: IgG; donor BRA15; source: recombinant monoclonal IgG, produced and purified as previously described
B3: V032 (antibody, V domains shown)
VH: QVQLVESGGGVVQPGRSLRLSCAASGFTFSSYGMHWVRQAPGKGLEWVAVISYDGSNKYYADSVKGRFTISRDNSKNTLYLQMNSLRAEDTAVYYCAKVSGPYCSSTSCYTGYWDYWGQGTLVTVSS
VL: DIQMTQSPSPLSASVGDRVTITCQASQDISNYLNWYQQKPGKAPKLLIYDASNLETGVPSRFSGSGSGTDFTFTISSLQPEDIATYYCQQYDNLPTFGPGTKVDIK
notes: as for B1
B4: V038 (antibody, V domains shown)
VH: QVQLVQSGAEVKKPGASVKVSCKASGYTFTGYYVHWVRQAPGQGLEWMGWINPNSGGTNFAQRFQGRVTMTRDTSISTAYMELSRLRSDDTAVYYCARGITVYGVAPDAFDIWGQGTMVTVSS
VL: DIQMTQSPSSLSASVGDRVTITCQASQDISNYLNWYQQKPGKAPKVLIYDASNLEPGVPSRFSGSGSGTDFTFTISSLQPEDIATYYCQQYDNLITFGQGTRLEIK
notes: as for B2
B5: V043 (antibody, V domains shown)
VH: QLQLQESGPGLVKPSETLSLTCTVSGGSISSNNYYWGWIRQPPGKGLECIGTIYYSGNTYYNPSLKSRVTISVDTSKNQFSLKLGSVTAADTAVYYCARQQWLRDAFHIWGQGTMVTVSS
VL: NFMLTQPHSVSESPGKTVTISCTGSSGSIASNYVQWYQQRPGSAPTIVIYEDNQRPSGVPDRFSGSIDSSSNSASLTISGLKTEDEADYYCQSYDSNIHVVFGGGTKLTVL
notes: as for B2
B6: V037 (antibody, V domains shown)
VH: EVQLVESGGGLVQPGGSLRLSCAASEVIVSSNYMSWVRQAPGKGLEWVSVLYSGGSTFYADSVKGRFTISRDNSKNTLYLQMNSLRAEDTAVYYCARDLGPMGAFDIWGQGTMVTVSS
VL: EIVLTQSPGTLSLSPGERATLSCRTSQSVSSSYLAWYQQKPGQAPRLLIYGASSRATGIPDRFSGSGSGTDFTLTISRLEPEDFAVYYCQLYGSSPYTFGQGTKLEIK
notes: as for B2
B7: V044 (antibody, V domains shown)
VH: QVQLVQSGAEVKKPGASVKVSCKASGYTFTSYDINWVRQATGQGLEWMGWMNPNSGYAGYTQKFQGRITMTRNTSISTAYMELSSLRSEDTAVYFCARISSPTRLDPWGQGTLVTVSS
VL: NFMLTQPHSVSESPGKTVTISCSRSRGSIASSFVQWYQQRPGSSPTTVIYDDNQRPSGVPDRFSGSIDSSSNSASLTISGLKTEDEADYYCQSYDSISWVFGGGTKLTVL
notes: as for B2
B8: V042 (antibody, V domains shown)
VH: QLQLQESGPGLVKPSETLSLTCTVSGGSISSSTNYWGWIRQPPGKGLEWIGSIDYSGSTYYNPSLKSRVTMSVDTSKNQFSLKLSSVTATDTAMYYCARHVIDDSRGYYPAALDHWSQGTLVTVSS
VL: EIVLTQSPATLSLSPGERATLSCRASQSVNNYLAWYQQKPGQAPRLLIYDASNRATGVPARFSGSGSGTDFTLTISSLEPEDFAVYFCQQRSNWPPMYTFGQGTKLEIK
notes: as for B2
B9: V003 (antibody, V domains shown)
VH: EVQLVQSGAEVKKPGESLKISCLGSGYSFTSYWIGWVRQMPGKGLEWMGIIFPADSDTRYSPSFQGQVIISADKSISTAYLQWSSLKASDTAMYYCARLREFGDYYYYGMDVWGQGTTVTVSS
VL: DIQLTQSPSSLSASVGDRVTITCRASQGISSYLAWYQQKPGKAPKLLIYAASTLQSGVPSRFSGSGSGTDFTLTISSLQPEDFATYYCQQLNSYPDFGQGTKLEIK
notes: IgG; donor BRA13; source: recombinant monoclonal IgG, produced and purified as previously described

Target: T1, 417N/484K/501Y RBD mutant (SARS-CoV-2, Wuhan-Hu-1 RBD backbone …, 417N | 484K | 501Y)
T1 construct: also called RBD KEN
Assay: BLI
Details: both partners purified

Going from B1 to B2, the Kd falls from 10.7 nM to 0.542 nM (20-fold).

Going from B3 to B4, the Kd falls from 27.3 nM to 2.37 nM (12-fold). The second binds more tightly here.

Going from B5 to B6, the Kd falls from 4.02 nM to 0.241 nM (17-fold). The second binds more tightly here.

Going from B7 to B8, the Kd rises from 3.66 nM to 23.3 nM (6.4-fold).

Work on B9 yielded a Kd of 139 nM.

Source: paper PMC9270183 (The Journal of Experimental Medicine, 2022)
